# Source: article PMC4072508, “Genome-Wide Prediction and Validation of Peptides That Bind Human Prosurvival Bcl-2 Proteins” (PLoS Computational Biology, 2014)
# B1: RAPGEF2 (peptide)
# chain: FEKLRMIAKEIRHVLRMASVNMDPAL
# B2: UBA6 (peptide)
# chain: NVGCQQDSEELLKLATSISETLEEKP
# B3: MRPL41 (peptide)
# chain: MGVLAAAARCDVRGADRMSKWTSKRG
# B4: DYNC2H1 (peptide)
# chain: PKELEGYIQKLQNAAERLATENRKLR
# B5: SYAP1 (peptide)
# chain: LHQAKDFGNYLFNFASAATKKITESV
# B6: MON1A (peptide)
# chain: SQDFSELSTQLTGVARDLQEEMLPGS
# B7: CGNL1 (peptide)
# chain: PFGLQGNSEYLIEFSRNLGKSSEHLL
# B8: OTOF (peptide)
# chain: DFMGRTFAKPLVKMLDEAYCPPRFPP
# B9: FOLH1 (peptide)
# chain: PFDCRDYAVVDRKYADKIYSISMKHP
# B10: C17orf103 (peptide)
# chain: AYRGRGIAKHDAKAALDFVVEEDLKA
# B11: NBEAL2 (peptide)
# chain: EVRSSQFARKDWRSSRRISQVSSGET
# B12: PLB1 (peptide)
# chain: RVIPHDGAEDLWIQAQELVRNMKENL
# B13: CYP46A1 (peptide)
# chain: LREVRESIRFLRQVLRDWVQRRREAL
# B14: NOL8 (peptide)
# chain: KYDPSKYCHNDKKIGEDFSNTIPISS
# B15: BCAP29 (peptide)
# chain: WLVLRRLVTLITQLAKELSNKGVLKT
# B16: TLR1 (peptide)
# chain: TCELGEFVKNIDQVSSEVLEGWPDSY
# B17: TFDP1 (peptide)
# chain: NRKGEKNGKGLRHFLMKVCEKVQRKG
# B18: TSN (peptide)
# chain: REEIRKVVQSLEQTAREILTLLQGVH
# B19: ORC6L (peptide)
# chain: KAIFDRLCKQLEKIGQQVDREPGDVA
# B20: LMO2 (peptide)
# chain: CLSCDLCGCRDGEVGRRLYYKLGRKL
# B21: ARHGAP4 (peptide)
# chain: EVLAGPLAQRLSHILEDVGRLVKKSR
# B22: C9orf167 (peptide)
# chain: GFQVLNAIENLDDNAQRYDLDGLEKA
# B23: OTUD7B (peptide)
# chain: KKRADSVANKLGSFGKTLGSKLKKNM
# B24: NCOA6 (peptide)
# chain: FNIPREAAERLRILAQSNNQQLRDLG
# B25: TRPM7 (peptide)
# chain: FERVEQMCIQIKEVLDRVNYIKRSLQ
# B26: PLCG1 (peptide)
# chain: QEELQDWVKKIREVAQTADARLTEGK
# B27: UBE2C (peptide)
# chain: SDNLFKWVGTIHGAAGTVYEDLRYKL
# B28: TLR5 (peptide)
# chain: PEDLQDVGWFLHKLLQQILKKEKEKK
# B29: TRIM58 (peptide)
# chain: KSRLVQQSKALKELLDELQERCQRPA
# B30: NOL8 (peptide)
# chain: KYDPSKYCHNLKKILEDFSNTIPISS
# B31: DFNA5 (peptide)
# chain: LQIIPTLCHLLRALSDDGVSDLEDPT
# B32: BRPF3 (peptide)
# chain: DTIFHRAAVRDRDLGGAILRHARRQA
# B33: mTOR (peptide)
# chain: GELAQVSGLEDRKWVDELFIIIMDML
# B34: CASP5 (peptide)
# chain: DNHKKKTVKMDEYLGKDVLHGVFNYL
# B35: ARMCX5 (peptide)
# chain: FQEAKQFGQKLQDLAEHSDPEVRDKV
# B36: EVC (peptide)
# chain: EARVLEEASRLEEEAQQTRLQLQQRL
# B37: C17orf103 (peptide)
# chain: AYRGRGIAKHLAKALLDFVVEEDLKA
# B38: PCSK6 (peptide)
# chain: GTKSQLLAKRLLDLSNEGFTNWEFMT
# B39: CYP46A1 (peptide)
# chain: LREVRESIRFDRQVGRDWVQRRREAL
# B40: GRIPAP1 (peptide)
# chain: RTNNYQLSDELRKNLVELTSLRQKVA
# B41: BCL2A1 (peptide)
# chain: GSGPSKTSRVLQNVAFSVQKEVEKNL
# B42: MYO15A (peptide)
# chain: YGRLRPRARSLSKASTAINWLTKKFL
# B43: TFDP1 (peptide)
# chain: NRKGEKNGKGDRHFSMKVCEKVQRKG
# B44: RB1CC1 (peptide)
# chain: LHNLVKAAQSLDEMSQTITDLLSEQK
# B45: CACNA1G (peptide)
# chain: VYILRKAARRLAQVSRAAGVRVGLLS
# B46: DHX40 (peptide)
# chain: QFEIEKSCELLFQMAESVDYDYDVQD
# B47: RIMBP3C (peptide)
# chain: RAELTGLARRLADRARELQETNLRAV
# B48: SKIV2L2 (peptide)
# chain: LRQMQECAKRIAKVSAEAKLEIDEET
# B49: RAPGEF2 (peptide)
# chain: FEKLRMIAKEDRHVGRMASVNMDPAL
# B50: CCNH (peptide)
# chain: RYPILENPEIDRKTADDFLNRIALTD
# B51: RNF213 (peptide)
# chain: LANVTEDAKRLIAVADSVLTKVVGDL
# B52: MAGEB2 (peptide)
# chain: IKKSVTKGEMDKIVGKRFREHFPEIL
# B53: SMG6 (peptide)
# chain: DLQIYQPGRRLQTVSKESASRVEEEE
# B54: NUB1 (peptide)
# chain: TDENKKVGLALKDLLKQYSDRLECCE
# B55: MTA1 (peptide)
# chain: RQAFYLHTTKLTRILRRLCREILRPW
# Target: Bcl-xL, Q07817
# Test: peptide SPOT array, c-Myc-tagged receptor at 1 uM or 100 nM, anti-c-Myc-Cy3
# Chain of Bcl-xL, Q07817 (Q07817 1-209): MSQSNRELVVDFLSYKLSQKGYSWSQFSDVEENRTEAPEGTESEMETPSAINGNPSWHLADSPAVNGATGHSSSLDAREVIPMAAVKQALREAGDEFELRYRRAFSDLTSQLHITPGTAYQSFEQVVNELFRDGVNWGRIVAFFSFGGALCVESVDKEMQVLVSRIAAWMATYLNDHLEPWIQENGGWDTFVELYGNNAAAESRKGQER
row,SPOT signal as a fraction of Bim BH3's signal on the same receptor and array,Binder
1,0.09,B1
2,0.02,B2
3,0.56,B3
4,0.09,B4
5,0.21,B5
6,0.03,B6
7,0.03,B7
8,0.17,B8
9,0.45,B9
10,0.21,B10
11,0.92,B11
12,0.03,B12
13,0.44,B13
14,0.08,B14
15,0.35,B15
16,0.02,B16
17,0.42,B17
18,0.04,B18
19,0.04,B19
20,1.08,B20
21,0.19,B21
22,0.03,B22
23,0.58,B23
24,0.08,B24
25,0.18,B25
26,0.03,B26
27,0.03,B27
28,0.09,B28

row,SPOT signal as a fraction of Bim BH3's signal on the same receptor and array,Binder
1,0.11,B29
2,0.28,B30
3,0.03,B31
4,1.5,B32
5,0.02,B33
6,0.11,B34
7,0.02,B35
8,0.02,B36
9,0.17,B37
10,0.03,B38
11,1.14,B39
12,0.52,B40
13,0.06,B41
14,1.39,B42
15,0.47,B43
16,0.03,B44
17,0.76,B45
18,0.02,B46
19,0.22,B47
20,0.03,B48
21,0.13,B49
22,0.02,B50
23,0.03,B51
24,0.4,B52
25,0.03,B53
26,0.03,B54
27,0.85,B55
